For 1 variant, response results are on record in paper PMC7078472.

B1: unnamed (parent)
chain 1: VHQRIASWQNLGAVYCSTVVPSDDVTVVYQNGLPVISVRLPSRRERCQFTLKPISDSVGVFLRQLQEEDRGIDRVAIYSPDGVRVAASTGIDLLLLDDFKLVINDLTYHVRPPKRDLLSHENAATLNDVKTLVQQLYTTLCIEQHQLNKERELIERLEDLKEQLAPLEKVRIEISRKAEKRTTLVLWGGLAYMATQFGILARLTWWEYSWDIMEPVTYFITYGSAMAMYAYFVMTRQEYVYPEARDRQYLLFFHKGAKKSRFDLEKYNQLKDAIAQAEMDLKRLRDPLQVHLPLRQIGEKD
chain 2: DIDTAAKFIGAGAATVGVAGSGAGIGTVFGSLIIGYARNPSLKQQLFSYAILGFALSEAMGLFCLMVAFLILFAM

This assay covers variants of B1. Nature of the assay: MYTH (membrane yeast two-hybrid) quantitative β-Gal activity assay. The note with it: with partner chain of the complex shown; yeast strain NMY51; n = 3; 6 colonies for each independent experiment; read off a plot.
Take chain 1 Q196A I199P L200P W205A: the response was found to be 26 units.
